This passage reports Kd results from PMC8983682 (2022).

A value given as a limit tells only on which side of the number the result lay.

The experiment deals with N1-MI15-WT (recombinant soluble NA head of A/Michigan/45/2015 fused to hVASP) (influenza A virus A/Michigan/45/2015). The experiment in a line: BLI.

B1: CD6 IgG (antibody, V domains shown)
VH: QVKLQESGGGLVQPKGSLKLSCAASGFTFNTYAMNWVRQAPGKGLEWVARIRSKSNNYATFYADSVKDRFTISRDDSQSMLYLQMHNLKTDDTAMYYCVRPSIYYYASGYLDVWGAGTTVTVSS
VL: QIVLSQSPAILSASPGEKVTMTCRTSSSVSYMHWYQQKPGSSPKPWIYATSNLASGVPFRFSGSGSGTSYSLTISRVEAEDAATYYCQQWNSNPPTFGGGTKLEIK
Regarding B1, the Kd amounted to 1.3 nM.

B2: 1G01 IgG (antibody, V domains shown)
VH: EVQLVESGGRALRPGGSLRLSCAASGFKFDDYAMSWVRQVPGKGLEFVSGLNWNGDITAYTDSVKGRFTVSRDNAKNSLYLHINSPKPEDTALYYCARTSSWGDYTRGPEPKITWYFDLWGRGTLVTVSS
VL: DIQLTQSPSFLSASVGDRITITCRASQGIDGYLAWYQQRPGKAPNLLIYAASLLQSGVPSRFSGSGYGTEFTLTISSLQPEDFATYYCQHLDSYPLFTFGPGTKVDIK
With B2, the Kd is < 0.001 nM.
